The results in this text go back to paper PMC12329595, “Engineered bacteriophytochrome heterodimers for research and applications” (The Journal of Biological Chemistry, 2025).

Series [1] concerns the target T1, DrBphPRE (full-length DrBphP E306R/R310E) (Deinococcus radiodurans strain R1, UniProt Q9RZA4 1-755, E306R | R310E, biliverdin IXα covalently linked to a conserved cysteine (holoprotein)).
T1 construct: Deinococcus radiodurans strain R1 bacteriophytochrome DrBphP, full length; source: E. coli BL21 (DE3), purified (Ni-NTA, SEC)
T1 sequence: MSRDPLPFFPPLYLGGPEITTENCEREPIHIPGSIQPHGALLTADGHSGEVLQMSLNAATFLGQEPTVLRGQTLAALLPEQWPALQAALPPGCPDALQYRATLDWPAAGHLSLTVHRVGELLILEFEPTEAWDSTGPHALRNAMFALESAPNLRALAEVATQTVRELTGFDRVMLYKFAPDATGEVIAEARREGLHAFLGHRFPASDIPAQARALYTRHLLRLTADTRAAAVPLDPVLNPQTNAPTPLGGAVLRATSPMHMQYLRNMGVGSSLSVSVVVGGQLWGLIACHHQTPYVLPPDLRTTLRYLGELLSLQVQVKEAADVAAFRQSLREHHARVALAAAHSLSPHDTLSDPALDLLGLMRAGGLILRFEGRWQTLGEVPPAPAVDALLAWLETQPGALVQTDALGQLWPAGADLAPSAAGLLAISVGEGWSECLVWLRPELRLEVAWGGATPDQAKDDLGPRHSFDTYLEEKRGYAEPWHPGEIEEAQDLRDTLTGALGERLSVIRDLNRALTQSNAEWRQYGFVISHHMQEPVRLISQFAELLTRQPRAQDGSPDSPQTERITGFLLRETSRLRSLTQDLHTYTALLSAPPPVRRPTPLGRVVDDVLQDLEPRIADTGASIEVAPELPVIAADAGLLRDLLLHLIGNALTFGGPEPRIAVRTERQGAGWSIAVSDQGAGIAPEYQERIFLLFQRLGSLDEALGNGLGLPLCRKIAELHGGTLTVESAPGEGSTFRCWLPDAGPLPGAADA
The series can be described thus: SEC; HPLC, bioZen 1.8 μm SEC-3 column, 30 mM Tris/HCl, 150 mM NaCl, pH 8.0 with 10% acetonitrile, 25 °C; full-length DrBphP and DrF1 variants and mixtures. The conditions noted are these: both partners purified. (In gel filtration, larger molecules generally elute earlier.)

Series [2] deals with the molecule itself. The series is described as above.

Substitutions are numbered along the chain they refer to. Numbers in names are those of the source.

B1: DrBphPER (full-length DrBphP R141E/E148R) (natural protein)
chain: T1 sequence with R141E, E148R, R306E, E310R
modifications: biliverdin IXα covalently linked to a conserved cysteine (holoprotein)
notes: Deinococcus radiodurans strain R1 bacteriophytochrome DrBphP, full length; source: E. coli BL21 (DE3), purified (Ni-NTA, SEC)
Take B1: the binding result in series [1] and in series [2] was “binds” each time.
